In article PMC12049912 (2025):

What was measured:
[1] = biological target: T1, p68 S551F (mp68; DDX5 S551F) peptide on H-2Kb (mouse); assay: cytokine release
T1 peptide: SNFVFAGI

[2] = biological target: T1, p68 S551F (mp68; DDX5 S551F) peptide on …; assay: multimer staining

B1: 1D9 (TCR)
alpha TRAV1 TRAJ30 CDR3: CAVRSDTNAYKVIF
beta TRBV19 TRBJ2-7 CDR3: CASSKRLSSYEQYF
[1]
  binding result: recognises

B2: T1-3 (TCR)
alpha TRAV19 TRAJ40 CDR3: CAAGGFNTGNYKYVF
beta TRBV19 TRBJ2-7 CDR3: CASSIRQGSGEQYF
[2]
  binding result: no recognition

B3: T3-3 (TCR)
alpha TRAV13-4 TRAJ30 CDR3: CAMEHDTNAYKVIF
beta TRBV12-1 TRBJ2-1 CDR3: CASSLRGYAEQFF
[2]
  binding result: no recognition

B4: T3-3/2 (TCR)
alpha TRAV19 TRAJ40 CDR3: CAAGGVNTGNYKYVF
beta TRBV12-1 TRBJ2-1 CDR3: CASSLRGYAEQFF
[2]
  binding result: no recognition
